Consider 40 sequences from the nanobody polyreactivity screen of Harvey et al. (2022).

The data set in a line: yeast display, Sf9 membrane polyspecificity reagent, FACS + sequencing; frameworks hold sequencing errors. Put shortly: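 Polyreactivity labels are assigned by the sorting gate from which each nanobody was recovered. The gates were low and high (top ~1%), set on anti-HA fluorescence for expression and streptavidin fluorescence for reagent binding. Before sorting, galactose-induced (36–48 hours) yeast display cells were stained for 1 hour at 4 °C with 10% biotinylated, detergent-solubilized Sf9 membrane reagent.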
Turning to “QVQLVESGGGLVQAGGSLRLSCAASGSIFPYYAMGWYRPAPGKERELVAGITSGTRTNYADSVKGRFTISRDNAKNTVYLQMNSLKPEDTAVYYCAAYYRAYRRDYYWGQGTQVTVSS”, the “polyreactivity (PSR sort gate)” value is reported as “high polyreactivity”.

Take “QVQLVESGGGLVQAGGSLRLSCAASGINFGRNAMGWYSQAPGKERELVAAITRRGGRTNYADSVKGRFTISRDNAKNTVYLQMNSLKPEDNAVYYCNAHGRPAEAGYDYWGQATQVTVSS”: the “polyreactivity (PSR sort gate)” value is listed as “high polyreactivity”.

As for “QVQLVESGGGLVQAGGSLRLSCAASGRTFQVNAMGWYRQAPGKERELVAAISASDGSTYADSVKGRFTISRDNAKNTVYLQMNSLKPEDTAVYYCNKAAYGGHRTSEQVGWVYLYDYWGQGTQVTVSS”, the “polyreactivity (PSR sort gate)” value is listed as “low polyreactivity”.

As to “QVQLVESGGGLVQAGGSLRLSCAASGSINVRYAMGWYRQAPGKERELVAAISWSGGRTYYADSVKGRFTISRDNAKNTVYLQMNSLKPEDTAVYYCAADSSVRYRDTEDYWGQGTQVTVSS”, the “polyreactivity (PSR sort gate)” value is given as “low polyreactivity”.

Take “QVQLVESGGGLVQAGGSLRLSCAASGSIFSRNAMGWYRQAPGTERELVAAITDSTGTTYYADSVKGRFTISRDNAKNTVYLQMNSLKPEDTAVYYCNAVGVPQGNFYVRGDDYWGQGTQVTVSS”: the “polyreactivity (PSR sort gate)” value is on record as “low polyreactivity”.

As for “QVQLVESGGGLVQAGGSLRLSCAASGSIFLPYAMGWYRQAPGKEREFVAAIRWSTGRTFYADSVKGRFTISRDNAKNTVYLQMNSLKPEDTAVYYCAAVWPDVRGYDYWGQGTQVTVSS”, the “polyreactivity (PSR sort gate)” value is given as “high polyreactivity”.

Consider “QVQLVESGGGLVQAGGSLRLSCAASGLTFNVYAMGWYRQAPGKERELVASITKRGGSTYYADSVKGRFTISRDNAKNTVYLQMNSLKPEDTAVYYCAADGLTGSKYRATGYYWGQGTQVTVSS”, for which the “polyreactivity (PSR sort gate)” value is reported as “high polyreactivity”.

“QVQLVESGGGLVQAGGSLRLSCAASGRTFYGYAMGWYRQAPGKERELVAVITRDGSTNYADSVKGRFTISRDNAKNTVYLQMNSLKPEDTAVYYCAAERLAYRVRWRYNQEDYWGQGTQVTVSS”: the “polyreactivity (PSR sort gate)” value was “high polyreactivity”.

Consider “QVQLVESGGGLVQAGGSLRLSCAASGRTFKYYAMGWYRQAPGKERELVAAISWNGGSTYYADSVKGRFTISRDNAKNTVYLQMNSLKPEDTAVYYCAARYYAAGIGSRYDYWGQGTQVTVSS”, for which the “polyreactivity (PSR sort gate)” value is listed as “high polyreactivity”.

In the case of “QVQLVESGGGLVQAGGSLRLSCAASGRIFGRYAMGWYIQAPGKERELVAAISRRGVSTTYADSVKGRFTISRDNAKNTVYLQMNSLKPEDTAVYYCAAVRYGYSSTRDYLGQGTQVTVSS”, the “polyreactivity (PSR sort gate)” value is reported as “high polyreactivity”.

For the sequence “QVQLVESGGGLVQAGGSLRLSCAASGRIFGGNAMGWYRQAPGKERELVAAITTRGGSTYADSVKGRFTISRDNAKNTVYLQMNSLKPEDTAVYYCNKRYVIRRRGYDYWGQGTQVTVSS”, the “polyreactivity (PSR sort gate)” value was “low polyreactivity”.

For “QVQLVESGGGLVQAGGSLSLSCAASGFTYRLYTMGWYRQAPGKERELVAGISTSGGSTYYADSVKGRFTISRDNAKHTVYLQMNSLKPEDTAVYYCAAQAFTSYDYWGQGTQVTVSS”, the “polyreactivity (PSR sort gate)” value was “high polyreactivity”.

Take “QVQLVESGRGLVLAGGSLRLSCAASGRIFRYYAMGWYRQATGKERELVAGISWRGSSTYYADSVKGRFTISRDNAKNTVYLQMNSLKPEDTAVYYCNRDQSYIPVTGGRFYYWGQGTQVTVSS”: the “polyreactivity (PSR sort gate)” value is reported as “high polyreactivity”.

As for “QVQHVESGGGLVQAGGSLRLSCAASGLTFTYYVKGCYRQAPGKERELVAAITVSGGSTYYADSVKGRFTISRDNAKNTVYLQMNSLKPEDTAVYYCAADAYSGYSDYYWGQGTQVTVSS”, the “polyreactivity (PSR sort gate)” value is “low polyreactivity”.

As to “QVQLVESGGGLVQAGGSLRLSCAASGSTFLYYAMGWYRPAPGKERELVAAISSGDSTYADSVKGRFTISRDNAKNTVYLQMNSLKPEDTAVYYCNTVLYPYWQWDYEFDYWGQGTQVTVSS”, the “polyreactivity (PSR sort gate)” value is “low polyreactivity”.

“QVQLEESGGGLVQAGGSLRLSCAASGSIFRSYAMGWYRQAPGKEREFVAAINSRSGSTYYADSVKGRFTISRDNAKNTVYLQMNSLKPEDTAVYYCAAKFAQPDYRYDYWGQGTQVTVSS”: the “polyreactivity (PSR sort gate)” value was “high polyreactivity”.

For the sequence “QVQLVESGGGLVQAGGSLRLSCAASGRTFYYYAMGWYRQAPGKERELVAVIRFSDGSTYYADSVKGRFTISRDNAKNTVYLQMNSLKPEDTAVYYCAAKGPRRWGSGFDYWGQGTQVTVSS”, the “polyreactivity (PSR sort gate)” value is “low polyreactivity”.

“QVQRVESGGGLVQAGGSLRLSCAASGSIFSIYAMGWNRQAPGKEMEFVAAIDSGTSTTYADSVKGRFTISRDNAKNTVYLQMNSLKPEDTAVYYCAAALYSDVAAVSTYGYYWGQGTQVTVSS”: the “polyreactivity (PSR sort gate)” value is given as “low polyreactivity”.

With “QVQLVESGGGLLQAGGSLRLSCAASGNTFITNAKGWYRQAPGKERDLVAAISSGGTTYYADSVKGRFTISRDTAKNTVYLQMYSLKPEDTAVYYCATDIHSVHNNRDKHDYDYWGQGTQVTVSS”, the “polyreactivity (PSR sort gate)” value is on record as “low polyreactivity”.

On to “QVQLVESGGGLVQAGGSLRLSCAASGRTFASYTMGWYRQAPGKERELVAAISRGGNTYYADSVKGRFTISRDNAKNTVYLQMNSLKPEDTAVYYCAATAVKYDRRFYYWGQGTQVTVSS”, for which the “polyreactivity (PSR sort gate)” value is listed as “high polyreactivity”.

With “QVHLVESGGGLVQAGGSLRLICAASVFNLDWYVMGWNRQAPGKERQLVAAISSSGGRTYNADSVKGRFTISRDKAKNTVYLQMNSLKPEDTAVYYCAARNKYGGYPYGYDYWGQGTQVTVSS”, the “polyreactivity (PSR sort gate)” value was “high polyreactivity”.

Consider “QVQLVESGGGLVQAGGSLRLSCAASGRIFFGYAMGWYRQAPGKERELVATITSGGSTYYADSVKGRFTISRDNAKNTVYLQMNSLKPEDTAVYYCASQLHWVFTSGWAYRGSYDYWGQGTQVTVSS”, for which the “polyreactivity (PSR sort gate)” value is “low polyreactivity”.

Take “QVQLVESGGGLVQAGGSLRLSCAASGRLFYLNAMGWYRQAPGKERDLVAAISGSTGSTYYADSVKGRITISRDNAMNPVYLHMTSLKPVDTAVYYSNAGGVYVEFNYWGQGTQVTVSS”: the “polyreactivity (PSR sort gate)” value was “low polyreactivity”.

On to “QVQLVESGGGLVQAGGSLRLSCAASGRIFLRYAMGWYRQAPGKEREFVAAISYVGGSTYYADSVKGRFTISRDNAKNTVYLQMNILKPEDTAVYYCNADVPKSLLLYYPWGYGFWGQRTQVTVSS”, for which the “polyreactivity (PSR sort gate)” value is “low polyreactivity”.

Regarding “QVQLVESGAGLVQAGGSLRLSCAASGSILDEYAMGWYRQPPGKERELVAAISSSGTSTYYADSVKGRFTISRDNAKNTVYLQMNSLKPEDTAVYYCARVKQHTSHRVPGDDYWGQGTQLTVSS”, the “polyreactivity (PSR sort gate)” value is “low polyreactivity”.

On to “QVQLVESGGGLVQAGGSLRLSCAASGLIFRYYSMGWYRQAPGKERELVAAISWTGGSTYYADSVKGRFTISRDNAKYTVYLQLNSLKPEDTAVYYCIAGQWRYPGLYYYWGQGTQVTVSS”, for which the “polyreactivity (PSR sort gate)” value was “high polyreactivity”.

Regarding “QVQLQESGGGLVQAGGSLRLRCAASRNISGSSDLGWYHQAPGKEREFVASMTSGGTTYYADSVKGRFTISRDNAKISEYLQMNSLKPEDTAVYYCAVGDPADAEFGYWGQGTQVTVRS”, the “polyreactivity (PSR sort gate)” value is given as “low polyreactivity”.

On to “QVQLVESGGGLVQEGGSLRLSCAASGRIFQWNAMGWYRQAPGKERELVATISSRGGSTYYADSVKGRFTISRDNAKNTVYLQMNSLKPEDTAVYYCAARYYAKYRSYDYWGQGTQVTVSS”, for which the “polyreactivity (PSR sort gate)” value is listed as “high polyreactivity”.

Consider “QVQLVESGGGLVQAGGSLRLTSAASGSIFQPYAMGWYRQAPVKERELVASIRGSAGSTHYADSVKGRFTISRDNAKNTVYLQMNSLKPEDTAVYYCAARAVASHFSPRLYGYWGQGTQVTVSS”, for which the “polyreactivity (PSR sort gate)” value is on record as “high polyreactivity”.

With “QLQLVESGGGLVQAGGSLRLICAASGRIFATYAMGWYRQAPGKEREFVAAITKGGVRTYYADSVKGRFTISRDNAKNTVYLQMNSLKPEDTAVYYCAADAWVRGRYPYGYDYWGQGTQVTVSS”, the “polyreactivity (PSR sort gate)” value was “low polyreactivity”.

With “QVQLVESGGGLVQAGGSLRLSCAASGSIFGYNTMGWYIQAPGKERELVATITRGGSTHYADSVKGRFTISRDNAKNTVYLQMNSLKPEDTAVYYCAATRLSYVRLYRFSQQYYYWGQGTQVTVSS”, the “polyreactivity (PSR sort gate)” value is listed as “high polyreactivity”.

“QVQLVESGGGLVQAGGSLRLSCAASGSNFYLYAMGWYRQAPGKERELVAAITSIGGSTYADSVKGRFTISRDNAKNTVYLQMNSLKPEDTAVYYCNTDEYPLTVQVQYYYWGQGTQVTVSS”: the “polyreactivity (PSR sort gate)” value is given as “low polyreactivity”.

Consider “QVQLVESGGGLVQAGGSLRLSCAASGFTLSYYAMGWYRQAPRKERELVASISAIGGITYYADSVKGRFTISRDNAKNTVYLQMNSLKPEDSAVYYCIAGKRFTPYDYWGQGTQVTVSS”, for which the “polyreactivity (PSR sort gate)” value is reported as “high polyreactivity”.

For “QVQLVESGGGLVQAGGSLRLSCAASGIIFGGYAMGWYRQAPGKERELVAAITRSGGSTYYADSVKGRFTISRDNAKNTVYLQMNSLKPEDTAVYYCAAVPYRKHSYPFRLNYWGQGTQVTVSS”, the “polyreactivity (PSR sort gate)” value is listed as “high polyreactivity”.

Regarding “QVQLVESGGGLVQAGGSLRLSCAASGSTFWKYAMGWYRQAPGKEREFVAAITRSGGNTYYADSVKGRFTISRDNAKNTVYLQMNSLKPEDTAVYYCAKVYKLITSYRGFGYWGQGTQVTVSS”, the “polyreactivity (PSR sort gate)” value was “high polyreactivity”.

Take “QVQLVESGGGLVQAGGSLRLSCAASGRIFFYNTKGWYRQAPGKERELVAVISSSDGSTYADSVKGRFTISRDNAKNTVYLQMNSLKPEDTAVYYCNAGWTRYVPYVRMDYWGHGTQVTVSS”: the “polyreactivity (PSR sort gate)” value was “high polyreactivity”.

As for “QVHLVESGGGLVQAGGSLRLSCAASGRTFSRYAMGWYRQAPGKERELVAGISLSGTSTYYADSVKGRFTISRDNAKNTVYLQMNSLIPVVTAVYYCATYSSYIPYGFDYWGQGTQVTVSS”, the “polyreactivity (PSR sort gate)” value is “high polyreactivity”.

In the case of “QVQLEESGGGLVQAGGSLRLSCAASGSIFSIYAMGWYRQAPGKERELVASITRSSGRTYYADSVKGRFTISRDNAKNTVYLQMNSLKPEDTAVYYCAKDYIPLALDADDYWGQGTQVTVSS”, the “polyreactivity (PSR sort gate)” value was “low polyreactivity”.

In the case of “QVQLVESGGGLVQAGGSLRLSCAASGIILRYYAMGWYRQAPGKERELVAAITRGGSTNYADSVKGRFTISRDNAKNTVYLQMNSLKPEVTAVYYCAADVVFWFSNVAWRDFGYWGQGTQVTVSS”, the “polyreactivity (PSR sort gate)” value is listed as “low polyreactivity”.

With “QVQLVESGGGLVQAGGSLRLSCAASGRTFYDYDMGCDRQAPGKERELVAAISGGDSTYYADSVKGRFTISRDNAKNTVYLQMNSLKPEDTAVYYCAVTPRGLPYGAYLLYYWGQGTQVTVSS”, the “polyreactivity (PSR sort gate)” value was “low polyreactivity”.
